# Reference: paper PMC7086702
# Target: Groundnut bud necrosis virus nucleocapsid (N) protein, full-length, hexa-histidine-tagged (Groundnut bud necrosis virus, strain GBNV-To(K))
# Assay: SEC
substance,measurement,value
"Groundnut bud necrosis virus nucleocapsid (N) protein, full-length, hexa-histidine-tagged (natural protein)",stoichiometry N,4
